{"source": "patent US20140227283A1", "about": "(INSERM INSTITUT NATIONAL DE LA SANTE ET DE LA RECHERCHE …, published 2014)", "binders": {"B1": {"name": "murine anti-Axl monoclonal antibody 3E3E8 (antibody, V domains shown)", "VH": "QVQLKESGPGLVAPSQSLSITCSVSGFSLTNYAVHWVRQPPGKGLEWLGVIWAGGSTNYNSALMSRLRISKDNSKSQVFFKMNSLQTDDTAMYYCARYYGSSLYPMDYWGQGTSVTVSS", "VL": "DIVMTQAAPSVPVTPGESVSISCRSSKSLLHSNGNTYLYWFLQRPGQSPQLLIYRMSNLASGVPDRFSGSGSGTVFTLRISGVEAEDVGVYYCMQHLEYPWTFGGGTELEIK", "notes": "also called mAb 3E3-E8; mAb 3E3E8"}}, "key": {"[1]": {"target": "T1, human Axl on the surface of cells (human, UniProt P30530 26-894)", "T1 construct": "whole, on cells; Endogenous Axl of the cell lines; also called cell surface Axl; Axl receptor", "T1 sequence (looked up)": "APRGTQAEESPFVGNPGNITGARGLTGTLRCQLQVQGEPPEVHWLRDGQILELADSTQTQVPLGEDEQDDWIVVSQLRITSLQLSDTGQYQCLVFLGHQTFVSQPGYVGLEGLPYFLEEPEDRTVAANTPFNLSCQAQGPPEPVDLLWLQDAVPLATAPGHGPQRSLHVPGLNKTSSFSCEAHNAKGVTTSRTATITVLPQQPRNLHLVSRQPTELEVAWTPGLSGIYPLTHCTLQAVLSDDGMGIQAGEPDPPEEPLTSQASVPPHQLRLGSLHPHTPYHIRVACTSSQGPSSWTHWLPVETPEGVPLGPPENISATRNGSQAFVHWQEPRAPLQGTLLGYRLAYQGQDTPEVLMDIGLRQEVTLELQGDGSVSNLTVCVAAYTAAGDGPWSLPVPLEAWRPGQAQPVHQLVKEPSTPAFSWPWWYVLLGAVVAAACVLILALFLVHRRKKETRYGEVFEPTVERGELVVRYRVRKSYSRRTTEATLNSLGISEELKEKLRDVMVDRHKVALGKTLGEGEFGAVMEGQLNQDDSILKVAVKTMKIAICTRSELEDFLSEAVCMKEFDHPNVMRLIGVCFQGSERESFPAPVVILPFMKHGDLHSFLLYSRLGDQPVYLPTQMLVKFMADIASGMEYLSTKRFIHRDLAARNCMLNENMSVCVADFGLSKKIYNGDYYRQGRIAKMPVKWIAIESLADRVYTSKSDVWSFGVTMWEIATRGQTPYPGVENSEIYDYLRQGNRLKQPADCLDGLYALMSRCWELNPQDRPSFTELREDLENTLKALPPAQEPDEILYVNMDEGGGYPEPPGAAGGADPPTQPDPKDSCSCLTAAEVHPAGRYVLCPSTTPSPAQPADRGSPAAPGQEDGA", "assay": "flow cytometry on A549 cells", "text": "FIG. 2: Flow cytometry analysis of cell surface Axl in A549."}, "human Mer-Fc": {"target": "T2, human Mer-Fc (human, UniProt Q12866 26-499, limits assumed)", "T2 construct": "also called h-Mer; not shown: Fc part", "T2 sequence (looked up)": "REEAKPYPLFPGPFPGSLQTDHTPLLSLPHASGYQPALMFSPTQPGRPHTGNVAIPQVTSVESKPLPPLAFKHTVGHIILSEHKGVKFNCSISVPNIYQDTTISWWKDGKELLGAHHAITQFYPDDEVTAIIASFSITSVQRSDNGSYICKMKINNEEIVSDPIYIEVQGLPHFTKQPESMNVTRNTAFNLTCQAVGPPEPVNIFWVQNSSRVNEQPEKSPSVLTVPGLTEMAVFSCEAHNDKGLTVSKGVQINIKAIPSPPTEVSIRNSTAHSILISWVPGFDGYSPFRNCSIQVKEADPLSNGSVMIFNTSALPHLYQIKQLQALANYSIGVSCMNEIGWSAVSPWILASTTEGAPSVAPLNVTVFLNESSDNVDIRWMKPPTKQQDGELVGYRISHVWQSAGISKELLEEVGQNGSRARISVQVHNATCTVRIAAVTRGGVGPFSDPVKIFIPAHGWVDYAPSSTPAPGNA", "assay": "ELISA on coated Fc fusion proteins", "method": "(§1) FIG. 1: ELISA experiments to investigate the affinity and the specificity of mouse monoclonal antibodies against hAxl. […] After washing, HRP-conjugated anti-mouse IgG was added."}, "Tyro-3-Fc (h-Tyro-3)": {"target": "T3, Tyro-3-Fc (h-Tyro-3) (human, UniProt Q06418 41-428, limits assumed)", "T3 construct": "also called human Tyro-3-Fc; not shown: Fc part", "T3 sequence (looked up)": "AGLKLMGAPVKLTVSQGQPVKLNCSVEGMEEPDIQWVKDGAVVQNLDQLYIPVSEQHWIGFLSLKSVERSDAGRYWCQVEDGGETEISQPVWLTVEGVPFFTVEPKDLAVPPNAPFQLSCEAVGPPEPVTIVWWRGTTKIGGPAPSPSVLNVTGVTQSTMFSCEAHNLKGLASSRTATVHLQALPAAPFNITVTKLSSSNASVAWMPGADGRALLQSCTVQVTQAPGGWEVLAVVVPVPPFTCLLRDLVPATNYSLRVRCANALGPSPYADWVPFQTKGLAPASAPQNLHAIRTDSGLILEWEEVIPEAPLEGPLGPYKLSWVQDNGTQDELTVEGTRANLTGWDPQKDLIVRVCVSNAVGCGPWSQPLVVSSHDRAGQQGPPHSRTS", "assay": "ELISA on coated Fc fusion proteins", "method": "as §1"}, "mouse Axl-Fc": {"target": "T4, mouse Axl-Fc (mouse, UniProt Q00993 20-443, limits assumed)", "T4 construct": "also called m-Axl; not shown: Fc part", "T4 sequence (looked up)": "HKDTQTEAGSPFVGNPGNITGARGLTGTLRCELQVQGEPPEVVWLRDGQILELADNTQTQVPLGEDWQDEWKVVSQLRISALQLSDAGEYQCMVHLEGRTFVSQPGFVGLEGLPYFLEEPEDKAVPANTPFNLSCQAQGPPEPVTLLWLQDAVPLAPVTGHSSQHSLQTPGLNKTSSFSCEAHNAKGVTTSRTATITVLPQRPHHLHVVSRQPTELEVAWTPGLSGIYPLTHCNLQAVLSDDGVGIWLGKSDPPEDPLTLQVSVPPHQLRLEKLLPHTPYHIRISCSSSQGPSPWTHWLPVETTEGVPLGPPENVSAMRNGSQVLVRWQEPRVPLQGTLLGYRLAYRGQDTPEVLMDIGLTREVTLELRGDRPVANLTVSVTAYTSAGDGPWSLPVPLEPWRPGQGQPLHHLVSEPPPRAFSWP", "assay": "ELISA on coated Fc fusion proteins", "method": "as §1"}, "[2]": {"target": "human Axl extracellular domain fused to human Fc domain (hAxl-hFc protein; R&D system) (human) (UniProt P30530)", "assay": "SPR (BIAcore-3000), hAxl-hFc amine-coupled on a CM5 chip, mAb injected at 2 to 133 nM, 25° C., one-to-one Langmuir model"}, "[3]": {"target": "human Axl extracellular domain fused to human Fc domain (hAxl-hFc protein; R&D system) (human) (UniProt P30530)", "assay": "SPR (BIAcore), hAxl-hFc on a CM5 chip; 3E3-E8 (666 nM) injected second, after Gas6 (625 nM), without removing Gas6"}, "[4]": {"target": "human Axl extracellular domain fused to human Fc domain (hAxl-hFc protein; R&D system) (human) (UniProt P30530)", "assay": "SPR (BIAcore), hAxl-hFc on a CM5 chip; 3E3-E8 (666 nM) injected first, before Gas6"}}, "data": [{"binder": "B1", "values": [{"measurement": "binding result", "setting": "[1]", "value": "binds"}, {"measurement": "binding result", "setting": "human Mer-Fc", "value": "no binding"}, {"measurement": "binding result", "setting": "Tyro-3-Fc (h-Tyro-3)", "value": "no binding"}, {"measurement": "binding result", "setting": "mouse Axl-Fc", "value": "no binding"}, {"measurement": "Kd", "setting": "[2]", "value": 1.6, "unit": "nM"}, {"measurement": "Response (RU)", "setting": "[3]", "value": 2420, "unit": "RU"}, {"measurement": "Response (RU)", "setting": "[4]", "value": 2500, "unit": "RU"}]}]}
